Assay results as given in the DeepSol protein solubility set.

Assay: soluble on expression in E. coli; label from the status in PepcDB or PDB records

Sequence | soluble on expression in E. coli
MGSDKIHHHHHHMMSMKIFETTAPHPEASLLTAFSKNALDRFAEKRTEECVAEALKVDGTHIFAFSGNRLVLKHDEQVIDPLFSAYELAELQPDFDNAVLLGYRETGEPRIAVPVAVAEDQLASHYKLADARTLYRDHLLDEELLSEVAQAVSLTHWNADNRFCGRCGGTMEQRIGGYKRICASCSHTIFPRTDPVVIMMTIDIERDLCLLGRGAHFASGMYSCLAGFVEPGETIEQAVRRETHEESGVEIGRVRYHASQPWPMPHTLMIGCYAEALSSDIARDEIELEDCRWFTREEVAKMLEAPAGEGFSAPPIGAIAHRLMRDWVEWPE | not soluble
MGSDKIHHHHHHMNADIKISFIDNIDKISASDWQNLNNSPCPFLRYNFFNALEKSESASAKQGWQAHHLVATNNNDVTAVMPMYLKSHSWGEYVFDWDWADAFKRNDIDYYPKLVATIPFTPVSSDKLLTSQGHVNELFEPLIEHCQQENINSWHILYCNEIRTALPEDVYQRNTVQFHWFNRDYETFDDFLNTFTSRKRKNTRKERLSIIEQEIDIRQLKNNEISQQDLEFFYLTYQLTYLKRGHQPHLSYEFFKQIVADMADNILLIIASHEQEDIACALFFYDDSQLYGRYWGCTKHYNNLHFELCYYRGIEFCIQNKLQSFNPGTQGEHKIQRGFEPVLTYSYHWVKHVPFRMAIKNFCQQEQQHMLTYQEQCQQVLPFRKI | not soluble
MGSDKIHHHHHHMNAVPKDEMTPLERMAAFAAGKPYDRIPCSSFSGETACHFIGTTVSEYRHSAKLMARVETVTYKMFGHDGAGVGPGFLALAEAMGTELKYPEDNIPFVANPVLKNWDDFDKLEPADPHKDGKLPIYLEALAMIKDAIGDEVPIGSSVGGPFTTAALVRGTENFLKDLRRNPEMAHRLLQLVTNTTLNYIDAVMDMGCSVSIGDPTASGSLLSVKQFREFAKPYLSKLADRVIERTGKGPMLHICGDSTPIWSDMADTGAPTLSLDNVIDLAEAKKVVGERVCIMGNVKPIDTIMKGSHQQIEAEVKECLRKAYDSPKGFILAVGCQVPLGTTADNFMCFMNAARKYGRYPLNPDNFI | not soluble
MGSDKIHHHHHHMNEAAKQLYITQPSLSNAVRNLETEMGIQIFIRNPKGITLTKDGMEFLSYARQILEQTALLEERYKGDNTSRELFSVSSQHYAFVVNAFVALFNGTDMTQYELFLRETRTWEIIDDVKNFRSEIGVLFLNSYNRDVLTKLFDDNSLIATTLFTTTPHIFVSKSNPLANRKKLNMKDLEDYPYLSYDQGLHNSFYFSEEMMSQIPHPKSIVVSDRATLFNLMIGLDGYTVATGILNSKLNGDEIVAIPLDVDDVIDIVYIRHDKANLSKMGQKFIDYLLEEVSFNHKNKQS | not soluble
MGSDKIHHHHHHMNEAQQERRRSVRRDLHSYPEPAWREFYTTSRIAEEIERIGVDQLYIGRNVVDGDARMAVPDDDELEDWQRKARDAGAREDVLEAAAGGFTGALAVLEQGEGPTVALRVDIDALPITESDSVAHAPATEEFRSTNEGYMHACGHDAHATIGLGVLEAVKESDFKGTFKVVFQPAEEVIGGGKAVAESGHLDDVDHLLAIHIGLDHPTGEIVAGVGGFLAVRQFEATFTGETAHAGGHPAQGRDAVQALATAVQNLHAIRRHGDGATRVNAGVVEGGTATNIVPGEATLEGEVRGETTPLKEYMSERADTVMSSAAEMHDCEVAIETTAEAPSAVSDDALAGVVYDAADSVPGVTSRLRTDDLGGSEDATYLMDRVQNHGGTATFVGIGTDHPGGHHTPLFDIDEDSLTIGIDVVTEAISQLSG | not soluble
MGSDKIHHHHHHMNEKEYEERLRIETIDIQHLYNAFSHYNRYEPTPYAALEELCAVYPFDYTDTVIDFGCGKGRLNFYLHDRFDCSVIGVEMNGQFYEDALMNQVTYMKKMKRRRGSIRFEHTYAEAYPIPDDVTKCYFFNPFSVQIFMKVVDQILASVERHPRPVDLILYYPADEYRYYLENQTIFEQVEEVRLKELFEKNHDERFVIYRVNLSQEVPKRV | not soluble
MGSDKIHHHHHHMNELQNFNFEGNEVRTVLINDEPYFVGKDVATAIGYQNTRKAIKDHVKTKYMREERIVTPSGTQTMTVISEPGIYQLAGQSKLPTAEPFQDWIYEEVLPSIRKHGAYMTDEKIEEALLNPDTIISLATQLKNEREKVEVERNGRLIAEQRVEELQPKADYYDQILSNKGVVTVTSIAKNYGMTAPELNKLLNRLGVQYSQSGSWYLYKKYQKNGYTHTIPVPYSHRDGRPDIKPQTKWTQKGHIFIYQLLKEHGILPMIEMKDESAV | not soluble
MGSDKIHHHHHHMNEREICERIAEILNLEHDCSKGIDDLLKILEYEINEYRKSLEEQAMFMEAQIEELSRSYEEISTLLEISEIFGTFEFPLNLQDKLEKVIRLLRNVIKFESYLVHLESELTVGDLNREEIEPEIGNPEKTVLIEPGKSEKFSNLLFVPIKGNKYYGYVCFVGKEDGGVFTAGDRKIAEMTARYIASALDRLDFLKKEIERERLEEQLNIARQIQTNLLPRKIPEIGFVEADACSQPAVQVGGDYYDFFVSQEKRFLTVVGDVAGKSVPAALLMSAVRSYLKVLVTTCPDLEKLVNRLNTILCEDMTNDRFVTMAFIEISPDGTLNLINAGHNPVYFLHKGELVKIEASAIPIGITEWEYKKHTIHLKPDTFVISYSDGLTEARNEAGEEFGYERLEKILREFKGETPAELLEALRKRVKSFMGDAQQHDDMTIVVLKYKGQQEVE | not soluble
MGSDKIHHHHHHMNFIKTISPIQKINFNGFEFYIKRDDLLGEINGNKARKLAFYIHQRYPKNQSFVSYGGSQSNALAALSIFAKQRSYKLVFACEKISTFLKNNPCGNYALALENGVDFVENIHSLSLKQFALSLCKKDDVFIEQGIANLEAQYGYMELAQEIQMQSQSLKLDFDIFLPSGTGTSAAFLAKYSKFKVFTCACVGDIKYLKKQILTLDPSYDFSNLEFLTSDKKYHFAKPYKEFYELYMDLKLKCNIEFDLLYDILGLSIALKQEWKKPLLYIHQGGILGNSTMLERYKFKKSV | not soluble
MGSDKIHHHHHHMNFREEFKLLLRARYPLIYIPTYEEERVEAAIREEATNQGNRPVYTWDFVDGYQGNPNDVGFGRRNPLQALEFIEKLPASAPAVLILRDYHRFLDDVAIARKLRNLSRLLKSQPKNIVLLSPRIAIPDDLTEVLTVVEFPLPAAAEIKTEVERLLQSTGNSLSGKVLDDLVLSCQGLSMERIRRVLAKAIATHGELQPEDVDLVLEEKRQTIRQTQILDFYPATEQISDIGGLDNLKDWLIRRGGSFTDKARQYGLPHPRGLMLVGIQGTGKSLTAKAIAHHWHLPLLRLDVGRLFGGLVGESESRTRQMIQVAEALAPCILWIDEIDKAFAGLGSKGDAGTASRVFGTFINWLAEKSSPVFVVATANDIQALPPEMLRKGRFDEIFFVGLPTQEERKAIYDVHLSRLRPHNLKSYDIERLAYETPDFSGAEIEQTLIEAMHIGFSQNRDFATDDILEAASQIVPLARTAVEQIQQLQEWAAAGRARLASKHNPLSERLRRTT | not soluble
MGSDKIHHHHHHMNGHLNDCLICDGKLEYLDAAEEMECVICHKKHLNNVRCINRHYICDECHSKRGAKIILEVCRTTDSKNPIEIMQKLMAKPFIHMHGPEHHILTGAALLAAYHNSGGQLDLNKALNEIERRAKQVPGGACGFWGCCGAAISTGMFISIATGATPLSEREWSLSNLITSKVLRRISALGGPRCCKRNCFTAAKVAVEFTGEQLAVNMELPVDICCFFSPNNHECKGALCPYSPQHSNS | not soluble
MGSDKIHHHHHHMNIELADLRLFVMIAECGNLTHGAARAFLSPPAASARIKAMEQEIGQQLLVRKNKGVELTPSGDALLRHARLVLRQFDFLTDDMTNAQMGHLRIYANTTGVTEFLPAILARFLADHPGVRVDLQERLTQEIIRAVADGTADIGIISGTEGRDGLERLRFATDRLMLAVPSGHHLAHHDQVSLEQTLAFEHIALHDGSTLLDFLRRQLRRSAFDRQLRIQVRSFEAMCRLIEAGVGIGVVPESAALRHLQTMDITLLALADDWAVRDRSILVRRWADLPQSAQRLIDLLVEKEAGGAEV | not soluble
MGSDKIHHHHHHMNIKIAKNAGFCFGVKRAMKMAWDEVEKNDSGIYALGPLIHNKQAVAKYEEKGLKTVNEIDTIPNHENMIIRSHGVPENIYKEAKDKKLKIVDTTCPFVKKIHTVVSEYHNKGYEIIVIGDMKHPEVIGINGWCENSAIIIKTLEQMENMEFDNSKRYCLVAQTTINPELYISIVNKLSDKLEEIVFNDTICSATKTRQESAKELAKEVDCMIVIGGKHSSNTQKLVKVCEDLVPTFAIETKDELDVNTLKKYKNLGITAGASTPNWIIEEVVTFLENL | not soluble
MGSDKIHHHHHHMNILVIGANGGVGSLLVQQLAKENVPFTAGVRQSDQLNALKSQGMKAILVDVENDSIETLTETFKPFDKVIFSVGSGGNTGADKTIIVDLDGAVKSMIASKEANIKHYVMVSTYDSRRQAFDDSGDLKPYTIAKHYADDYLRRSGLNYTILHPGALTNAAGSGKIEAAQYFDGKGEIPREDVATVLKEIVTSNHFNHQEFQIISGEQDIKDALTQFEIEKD | not soluble
MGSDKIHHHHHHMNILVSNGEEHVNQTIASFFHQRGDRPILLFTEKEKHLEYVAGHPEQEAVLCTTYEEETLAAMVKEAFEEEAIDVLVHGNEMVNEAELLERDPSSLNEVVQKALYHLFLLNKVVVRDMVKRKQGKIIFPLFYDPLYYAGYASSPILNQAKLSLMKCMSRELGAFKINVNSITFGYYNDQFTREEKKATKSQVEIFCLKPKLPEIEEYVHSIGLLVDPSASLIGGENLHVGAGIETGI | not soluble
MGSDKIHHHHHHMNIQEAFNAAAVDYDSLRRILIPCFDDFYKTAVEIIPIERTAPIKVLDLGAGTGLYSGMVQSVFPNAELTLLDLAPEMLEKAKLRFSKMGKSPKILIGDYVETNLDDSYDLIISALSIHHLSDFDKELLYQRIYNFLNPGGIFVNADQVLGKTPDLEELYRQHWLDSVRAKGISEEDLKAAQKRMEYDRMATLEIQLHWLEAAGFQNVDCWYKNFSFAVFGGYRPTI | not soluble
MGSDKIHHHHHHMNKQVNFDELEVGYDVPALPGMDEADIQTPCLVLDLDALERNIKKMGDYAREHGMRHRVHGKMHKSVDVAKLQEELGGACGVCCQKVSEAEVFARGGIKDVMVSNQVTDPQKIDRLARMPKFGARVLCCVDDPANVADLSAAAVKHGTQIEALVEIDCGAGRCGVTTTQEVVNIAKMIDAAEGLKFAGIQAYQGAMQHLDSYDERASKTQVAIDMVEDAIAGLKANGLECDIVGGGGTGSYYFESNSGAFNELQCGSYAFMDADYGRILDKDGKRIDDGEWENALFILTSVMSHAKADKAIVDAGLKAQSVDSGLATIYGRDDVEYVKCSDEHGVVMDPDGVLNVNDKLRLVPGHCDPTCNVHDWYVGVRGGKVETLWPVSARGKAY | not soluble
MGSDKIHHHHHHMNLKSGYPFWSIRNGLMRPYPRLEQDTHCEVAIIGGGVTAALIAHELLRHGHEVVVIEQREIGWGSTSASTALLQYEIDTPMVDLAAQYGMPAAALAYGACAKAILDLQELCDGLGGCDFTRQDSLYYASRARDLKDLQRELDARKTHALPVEWIAGDALWHDYGVRSEGAILSRLAASVDPYRLCYRLFAECEQYGGRIYDRSPIATLQAHDQHVDLRTQDGVNVRARHVIMAAGYGNQQWLSQRVARNRSSYAFVTDPLHDTDVGALKHTMMWETARPYLYVRTTADGRVVAGGEDDSIDIPARRDARVLSKMDTLLKKIAKVMPDVRLRPVFAWGGTFAETADGLPFFGTHSEHGPRVAFAMAYGGNGITYSAIGAGLLRAQLEGRAYPLSDLFGFSRLG | not soluble
MGSDKIHHHHHHMNLSHLKMMITVANLGSLQKTAEQLNRTQSAVSMALKKLEENAGFALFNRDGYRLELTEQGQHFLRQAEEVVRQQQRLQSLATQLKHGAEPLLTLCYDHTCDSKLWVPSIQHIQQQYPTTELHVDGESQMRALKRIDNGSADLALCPWLPLFRQYGDFETLPVAPFELTVVISTALMKEFGRMPQSRQDLLELPMLVPQNLEIGINLDAVLRLPSQQRIRVNEVNTQFELLMAGFGWGIIPKHIALDALEQGKLVEISIPGFVQQVRLEIHLVRSANRTLGPAANAIWESFA | not soluble
